# Experimental data: patent US20180186871A1 (SINGAPORE HEALTH SERVICES PTE, published 2018)
# B1: BSN-1H2 (antibody, V domains shown)
# VH: QAQLQQSGAELARPGASVKLSCKASGYTFTSYGITWVKQRTGQGLEWIGDIYPRSGNIYYNENFKGEATLTADKSSSTAYMQLSRLTSEDSAVYFCARSGWEGWFAYWGQGTLVTVSV
# VL: DIVMTQSHKFMSTSVGDRVNITCKASQDVGSAVVWYQQKPGQSPKVLIYWASTRHTGVPDRFTGSGSGTDFTLTISNVQSEDLADYFCQQYSSYRTFGGGTKLEIK
# B2: BSN-5B8 (antibody, V domains shown)
# VH: QVQLQQSGAELARPGTSVKLSCKASGYTFTSYGISWVKQRTGQGLEWIGEIYPRSSNTYYNEKFKGKATLTADKSSSTAYMELRSLTSEDSADYFCARANWVGYFDVWGTGTTVTVSS
# VL: DIVMTQSHKFMSTSVGDRVTITCKASQDVGTAVAWYQQKPGQSPKLLIYWASTRLTGVPDRFTGSGSGTYFTLTINNVQSEDLADYFCQQYSSYRTFGGGTKLEIK
# notes: mouse monoclonal anti-human IL-11 antibody from a hybridoma; also called A9
# B3: YU100-H01 (scFv)
# scFv: QVQLVQSGGGVVQPGRSLRLSCAASGFTFSSYAMHWVRQAPGKGLEWVAVISYDGSNKYYADSVKGRFTISRDNSKNTLYLQMNSLRAEDTAVYYCARIMGYDYGDYDVVDYWGQGTLVTVSSGSASAPKLEEGEFSEARVQSALTQPRSVSGSPGQSVTISCTGTSSDVGAYNYVSWYQQHPGKAPKLMIYDVSERPSGVPDRFSGSKSGNTASLTISGLQAEDEADYYCCSYAGSYTWVFGGGTKLTVL
# notes: light chain-shuffled human anti-IL-11 clone
# B4: Yu33-H3 (IgG) (antibody, V domains shown)
# VH: EVQLVESGGGFVKPGGSLSISCAASGFTFSGAYMNWVRQAPGKGLEWVAVISYDGSNKYYADSVKGRFTISRDNSKNTLYLQMNSLRAEDTAVYYCARDLYAFDIWGQGTMVTVSS
# VL: LPVLTQPHSVSESPGRTVTISCTRNTGNIASNRVQWYQQRPASAPTVVIYDNHQRPSGVPDRFSGSIDTSPNSAYLTISGLKTEDEADYYCQSYDYSSVIFGGGTQLTVL
# notes: also called YU33-B3/H3; #2
# B5: YU46-A8 (Fc fusion, not shown: a dimerising Fc or GST; small tags and cut ends)
# VH: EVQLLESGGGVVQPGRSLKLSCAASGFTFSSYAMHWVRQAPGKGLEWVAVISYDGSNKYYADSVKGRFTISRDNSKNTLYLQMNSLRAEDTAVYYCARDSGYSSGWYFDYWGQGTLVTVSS
# VL: QSALTQPRSVSGSPGQSITISCTGTSSDVGGYEYVSWYQQHPGKAPRLLIYDVSNRPSGVSNRFSGSKSGNTASLTVSGLQAEDEADYYCNSYTSSGTLVVFGGGTKLTVL
# notes: tested as scFv-Fc (human IgG1); also called #45
# B6: YU46-D3 (Fc fusion, not shown: a dimerising Fc or GST; small tags and cut ends)
# VH: EVQLLESGGGVVQPGRSLRLSCAASGFTFSSYAMHWVRQAPGKGLEWVAVISYDGSNKYYADSVKGRFTSSRDNSKNTLYLQMNSLRAEDTAVYYCARSGVLDYWGQGTLVTVSS
# VL: QSALTQPASVSGSPGQSITISCTGTSSDVGNYKYVSWYQQHPGKAPKLMIYDVSNRPSGVSNRFSGSKSGNTASLTISGLQAEDEADYYCSSYTSSSTLVVFGGGTKLTVL
# notes: tested as scFv-Fc (human IgG1); also called #56
# B7: YU46-G8 (Fc fusion, not shown: a dimerising Fc or GST; small tags and cut ends)
# VH: EVQLVESGGGVVQPGRSLRLSCAASGFSLGSYGMHWVRQAPGKGLEWVAVISYDGSNKYYADSVKGRFTISRDNSKNTLYLQMNSLRAEDTAVYYCAKGSYYFDYWGQGTLVTVSS
# VL: DIQMTQSPSSLSASVGDRVTITCRASQGSSSYLAWYQQKPGKAPKLLIYAASSLQSGVPSRFSGSGSGTDFTLTISSLQPEDFATYYCQQSYSTPLYTFGQGTKLEIK
# notes: tested as scFv-Fc (human IgG1); also called #54
# B8: BSN-7D4 (antibody, V domains shown)
# VH: EVQLQQSGPELVKPGASVKISCKASGYTFTDYNMDWVKQSQGKRLEWIGDINPNYGGTIYNQKFKGKATLTVDKSSSTAYMELRSLTSEDTTVYYCTRGELGHWYFDVWGTGTTVTVSS
# VL: DIVLTQSPPSLTVSLGQRATISCRASKSVSASGYSYMHWYQQKPGQPPKLLIYLTSNLESGVPARFSGSGSGTDFTLNIHPVEEEDAATYYCQHSWDLPPTFGGGTKLEIK
# B9: YU45-F2 (Fc fusion)
# VH: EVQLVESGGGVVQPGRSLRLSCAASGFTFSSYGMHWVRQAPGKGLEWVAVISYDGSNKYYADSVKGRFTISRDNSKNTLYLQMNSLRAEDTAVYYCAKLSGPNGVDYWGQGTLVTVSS
# VL: QPVLTQPRSVSGSPGQSVTISCTGTSSDVGGYNYVSWYQQHPGKAPKVMIYDVSKRPSGVPDRFSGSKSGNTASLTISGLQAEDEADYYCCSYAGSYTWVFGGGTKLTVL
# notes: tested as scFv-Fc (human IgG1); also called #24
# B10: YU100-G08 (scFv)
# scFv: QVQLVQSGGGVVQPGRSLRLSCAASGFTFSSYGMHWVRQAPGKGLEWVAVISYDGSNKYYADSVKGRFTISRDNSKNTLYLQMNSLRAEDTAVYYCAKIGATDPLDYWGQGTLVTVSSGSASAPKLEEGEFSEARVQSALTQPRSVSGSPGQSVTLSCTGTSSDVGGYNYVSWYQHYPGKAPKLMIFDVNERSSGVPDRFSGSKSGNTASLTISGLQAEDEADYYCCSYAGRYTWMFGGGTKVTVL
# notes: as for B3
# B11: YU46-B6 (Fc fusion, not shown: a dimerising Fc or GST; small tags and cut ends)
# VH: QVQLVQSGAEVKKPGASVKVSCKASGYTFTSYGISWVRQAPGQGLEWMGWISAYNGNTNYAQKLQGRVTMTTDTSTSTAYMELRSLRSDDTAVYYCARVVAAARSYYYYMDVWGKGTTVTVSS
# VL: SSELTQDPAVSVALGQTVRITCQGDSLRGYYATWYQQKPGQAPVVVMYGNNNRPSGIPDRFSGSSSGNTASLTITGAQAEDEADYYCDSRGRSGDHWLFGGGTKLTVL
# notes: tested as scFv-Fc (human IgG1); also called #47
# B12: BSN-2G6 (antibody, V domains shown)
# VH: QVQLQESGPELVKPGASVKIPCKASGYTFTDYNMDWVKQSHGKSLEWIGNINPDNGGTIYNQKFKGKATLTVDKSSSTAYMELRSLTSEDTAVYFCAREGPYGYTWFAYWGQGTLDTVSA
# VL: DILLTQSPAILSVSPGERVSFSCRASQSIGTSIHWYQQRTNGSPRLLIKYASESISGIPSRFSGSGSGTDFTLSINSVESEDIADYYCQQSNSWPLTFGAGTKLELK
# notes: mouse monoclonal anti-human IL-11 antibody from a hybridoma; also called A5
# B13: Yu45-G8 (Fc fusion, not shown: a dimerising Fc or GST; small tags and cut ends)
# VH: EVQLVESGGGVVQPGRSLRLSCAASGFTFSSYGMHWVRQAPGKGLEWVAVISYDGSNKYYADSVKGRFTISRDNSKNTLYLQMNSLRAEDTAVYYCAKFARGVYLFDYWGQGTLVTVSS
# VL: QSALTQPASVSGSPGQSITISCTGTSSDVGGYDYVSWYQQHPGTAPKLMISDVHNRPLGVSNRFSGSKSGNTASLTISGLQAEDEADYYCSSYTSSITWVFGGGTKLTVL
# notes: also called YU45-G8/H6; #19
# B14: BSN-2E1 (antibody, V domains shown)
# VH: QVQLQESGPELVKPGASVKIPCKASGYTFTDYNMDWVKQSHGKSLEWIGDINPHNGGPIYNQKFTGKATLTVDKSSSTAYMELRSLTSEDTAVYYCARGELGHWYFDVWGTGTTVTVSS
# VL: NIVMTQSPKSMSMSVGERVTLTCKASENVVTYVSWYQQKPEQSPKLLIYGASNRYTGVPDRFTGSGSATDFTLTISSVQAEDLADYHCGQGYSYPYTFGGGTKLEIK
# notes: mouse monoclonal anti-human IL-11 antibody from a hybridoma; also called A3
# B15: BSN-8H11 (antibody, V domains shown)
# VH: EVQLQQSGPELVKPGASVKIPCKASGYTFTDYNIDWVKQSHGKSLEWIGDINPNYGGTLYNQKFKGKATLTVDKSSSTAYMELRSLTSEDTAVYYCARGELGHWYFDVWGTGTTVTVSS
# VL: DIVLTQSPASLAVSLGQRATISCRASKSVSTSDYSYMHWYQQKPGHPPKLLIYLASNLESGVPARFSGSGSGTDFTLNIHPVEEEDAATYFCQHSRDLPPTFGGGTKLEIK
# B16: BSN-3C6 (antibody, V domains shown)
# VH: EVQLQQSGPELVKPGASVKIPCKASGYTFTDYNMDWVKQSHGKSLEWIGDINPHNGGPIYNQKFTGKATLTVDKSSSTAYMELRSLTSEDTAVYYCARGELGHWYFDVWGTGTTVTVSS
# VL: DIVLTQSPASLAVSLGQRATISCRASKSVSTSGYSYIHWYQQKPGQPPKLLIYLASNLDSGVPARFSGSGSGTDFTLNIHPVEEEDAATYYCQHSRDLPPTFGGGTKLEIK
# B17: YU100-F11 (scFv)
# scFv: QVQLVESGGGVVQPGRSLRLSCAASGFTFSSYGMHWVRQAPGKGLEWVAVISYDGSNKYYADSVKGRFTISRDNSKNTLYLQMNSLRAEDTAVYYCAKIGATDPLDYWGQGTLVTVSSGSASAPKLEEGEFSEARVQSALTQPASVSGSPGQSITISCTGSSSDVAGYNYVSWYQQHPGKAPKLMIYDVTKRPSGVPDRFSGSKSGNTASLTISGLQAEDEADYYCCSYAGSYTWVFGGGTQLTVL
# notes: as for B3
# How the values were obtained:
# [1] = molecular target: T1, FLAG-tagged human IL-11 expressed at the cell surface (human, UniProt P20809 22-199); assay: flow cytometry of hybridoma subclone supernatants on cells transfected with pB1-IL11-hum.FL (FLAG-tagged human IL-11 at the cell surface), anti-mouse IgG detection; sheet says 'flow cytometry (Attunes)', legend says iQue
# T1 construct: whole, on cells; also called IL-11 expressing HEK cells; target cells expressing human IL-11 at their surface; not shown: how the protein is held at
# T1 sequence (looked up): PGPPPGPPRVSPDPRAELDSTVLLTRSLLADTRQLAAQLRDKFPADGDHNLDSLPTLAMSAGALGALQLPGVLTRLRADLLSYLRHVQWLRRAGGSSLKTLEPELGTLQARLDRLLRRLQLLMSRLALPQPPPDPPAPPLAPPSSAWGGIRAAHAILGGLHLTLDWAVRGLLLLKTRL
# [2] = molecular target: T2, human IL-11 (human, UniProt P20809 22-199); assay: ELISA binding signal
# T2 construct: In the ELISAs this is recombinant human IL-11 coated on the plate (expressed in CHO cells as Fc-tagged and tag-free versions); In the fibroblast assays it is the IL-11 produced by human fibroblasts after TGFβ1 stimulation; also called recombinant human IL-11 (GenScript Cat. No. Z03108-1); interleukin 11
# T2 sequence (looked up): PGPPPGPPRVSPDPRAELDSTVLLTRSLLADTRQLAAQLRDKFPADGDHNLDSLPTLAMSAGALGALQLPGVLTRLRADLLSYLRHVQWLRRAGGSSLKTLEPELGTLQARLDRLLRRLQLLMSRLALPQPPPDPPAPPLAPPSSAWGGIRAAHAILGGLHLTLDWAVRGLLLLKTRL
# [3] = molecular target: T2, human IL-11; assay: cell-based or functional assay
# [4] = molecular target: T2, human IL-11; assay: ELISA on coated recombinant human IL-11, scFv-Fc dilution series
# [5] = molecular target: T2, human IL-11; assay: indirect ELISA on plate-coated recombinant human IL-11 (1 µg/mL), detection with HRP anti-human IgG (Fc-specific), absorbance 450-570 nm
# [6] = molecular target: T2, human IL-11; assay: EC50 from the indirect ELISA titrations of FIGS. 28A-28F on plate-coated recombinant human IL-11 (five-parameter fit), ng/ml is the concentration unit of FIG. 28 and paragraph 502
# [7] = molecular target: T2, human IL-11; assay: indirect ELISA on plate-coated recombinant human IL-11 (1 µg/mL), detection with HRP anti-human IgG (Fc-specific), absorbance 450-570 nm; remark: listed apart in the source
binder,measurement,setting,value
B1,% positive (anti-FLAG positive control = 100%),[1],157%
B2,% positive (anti-FLAG positive control = 100%),[1],188%
B3,hIL11 - average signal,[2],0.43
same,"MMP2 production (ng/ml), TGFB1-stimulated human atrial fibroblasts, Experiment 1 (NEG 42.7, POS 70.2)",[3],48.3 ng/mL
same,"MMP2 production (ng/ml), TGFB1-stimulated human atrial fibroblasts, Experiment 2 (NEG 36.2, POS 62.3)",[3],42.2 ng/mL
same,EC50,[4],0.053 µg/mL
B4,binding result,[5],binds
B5,EC50,[6],0.351 µg/mL
B6,EC50,[6],0.655 µg/mL
B7,EC50,[6],0.0323 µg/mL
B8,% positive (anti-FLAG positive control = 100%),[1],176%
B9,EC50 (read off the curve),[7],~0.004 µg/mL
same,EC50,[6],0.00424 µg/mL
B10,hIL11 - average signal,[2],0.153
same,"MMP2 production (ng/ml), TGFB1-stimulated human atrial fibroblasts, Experiment 1 (NEG 42.7, POS 70.2)",[3],42.3 ng/mL
same,"MMP2 production (ng/ml), TGFB1-stimulated human atrial fibroblasts, Experiment 2 (NEG 36.2, POS 62.3)",[3],38 ng/mL
same,EC50,[4],0.028 µg/mL
B11,EC50,[6],0.222 µg/mL
B12,% positive (anti-FLAG positive control = 100%),[1],23%
B13,EC50 (read off the curve),[7],~0.006 µg/mL
same,EC50,[6],0.00629 µg/mL
B14,% positive (anti-FLAG positive control = 100%),[1],164%
B15,% positive (anti-FLAG positive control = 100%),[1],190%
B16,% positive (anti-FLAG positive control = 100%),[1],176%
B17,hIL11 - average signal,[2],0.319
same,"MMP2 production (ng/ml), TGFB1-stimulated human atrial fibroblasts, Experiment 1 (NEG 42.7, POS 70.2)",[3],44.5 ng/mL
same,"MMP2 production (ng/ml), TGFB1-stimulated human atrial fibroblasts, Experiment 2 (NEG 36.2, POS 62.3)",[3],37.6 ng/mL
same,EC50,[4],0.027 µg/mL
